The values below come from patent publication US20130115208A1.

This assay addresses human-FcRn (neonatal Fc receptor) (human) (UniProt P55899). As to the kind of experiment: SPR (ProteOn XPR36), IgG amine-coupled on reaction spots, human FcRn injected in kinetic titration, pH 6.0.

Residue numbers refer to the chain shown, from its start. In names and notes the source's numbering stands.

Chain of UniProt P55899 (P55899 24-297 limits assumed, chain 1 of 2): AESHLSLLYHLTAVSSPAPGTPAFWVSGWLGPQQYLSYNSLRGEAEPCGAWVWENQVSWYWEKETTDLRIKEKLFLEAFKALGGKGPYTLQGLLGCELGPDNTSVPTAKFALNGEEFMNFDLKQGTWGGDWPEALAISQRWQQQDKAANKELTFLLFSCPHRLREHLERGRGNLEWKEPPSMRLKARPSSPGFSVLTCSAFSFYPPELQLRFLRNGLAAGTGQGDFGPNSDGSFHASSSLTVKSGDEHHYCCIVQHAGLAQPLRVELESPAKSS
Chain of UniProt P55899 (P61769 21-119 limits assumed, chain 2 of 2, further chain): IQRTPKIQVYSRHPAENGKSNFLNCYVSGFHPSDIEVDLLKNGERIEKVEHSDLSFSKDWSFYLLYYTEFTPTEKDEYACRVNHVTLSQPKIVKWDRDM

For the molecule hIgG2ΔA (control) (antibody), the Kd came out at 983 nM.

B1: hIgG2.EEE.L368E.Ab1.Ab1/hIgG2.RRR.K409R.Ab2.Ab2 (bispecific antibody, part only; not given: Variable regions and light chains, not shown: another chain or arm of the molecule)
constant 1: ASTKGPSVFPLAPCSRSTSESTAALGCLVKDYFPEPVTVSWNSGALTSGVHTFPAVLQSSGLYSLSSVVTVPSSNFGTQTYTCNVDHKPSNTKVDKTVERKCEVECPECPAPPVAGPSVFLFPPKPKDTLMISRTPEVTCVVVDVSHEDPEVQFNWYVDGVEVHNAKTKPREEQFNSTFRVVSVLTVVHQDWLNGKEYKCKVSNKGLPSSIEKTISKTKGQPREPQVYTLPPSREEMTKNQVSLTCEVKGFYPSDIAVEWESNGQPENNYKTTPPMLDSDGSFFLYSKLTVDKSRWQQGNVFSCSVMHEALHNHYTQKSLSLSPGK
constant 2: B1 constant 1 with E103R, E105R, E108R, E247L, K288R
B1 registered a Kd of 600 nM.
